This is an account of results in the supplement of paper PMC12042874.

± gives the uncertainty stated by the source.

The data set in a line: amyloid nucleation score (Sup35N fusion, yeast selection) (log enrichment); library NNK3; higher = more nucleation; inactive = no reads after selection. Put shortly: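 After 24 hours of induction with 100 μM copper sulfate, psi-negative yeast expressing peptides of 20 random codons fused to Sup35N were grown for 7 days at 30°C on medium lacking adenine and uracil. Input and output plasmid inserts were sequenced with Illumina, and sequences with under 100 input reads were discarded. Scores for nucleation are the DiMSum log enrichment of output over input reads, centred on the mode score of non-aggregating sequences.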
With GVFFFNYLNS, the amyloid nucleation score was 0.63 ± 0.14. TCSVTEMVTL: the amyloid nucleation score entry was “inactive”. With RDWCSNLMYYDYPVTEGCDT, the amyloid nucleation score entry is “inactive”. Regarding PVLSDNYLTDFAFCYQYYMS, the amyloid nucleation score entry was “inactive”. As for YVGFLSSCFF, the amyloid nucleation score came out at 1.19 ± 0.14. The result for LRSFKSKICVERLRDEIILL reads “inactive”.

On to MWITIS, for which the amyloid nucleation score entry is “inactive”.

With LEGSYPRADIAVNVFTVFTQ, the amyloid nucleation score result is “inactive”.

YTRNKQDIWGGNHGSRCQNG: the amyloid nucleation score entry is “inactive”. In the case of SSVKMTDLRH, the amyloid nucleation score entry is “inactive”. Turning to RGAVLLKNWL, the amyloid nucleation score entry was “inactive”.

As for VYVCYIL, the amyloid nucleation score was found to be 1.73 ± 0.077. With ITYAQSLKLCRTRVIGGLMY, the amyloid nucleation score worked out at 0.445 ± 0.2. With YFFKTQISSDGTLSTYECME, the amyloid nucleation score entry is “inactive”. On to GSEMVAGHS, for which the amyloid nucleation score result was “inactive”. In the case of IKPSAS, the amyloid nucleation score result is “inactive”. Take SSYYISNVSMPTFSEFVVTL: the amyloid nucleation score entry is “inactive”. For the substance FRESFLSSYVEYMTLGPGSN, the amyloid nucleation score was -0.342 ± 0.87. In the case of AYRVVQTGDLHGRCAWIVNV, the amyloid nucleation score was 0.088 ± 0.88. As to DVLRVFLFSSFIILCVGCTY, the amyloid nucleation score result was “inactive”. For VCLKVQWDYCIRLWVGMSYD, the amyloid nucleation score result is “inactive”. With YRNVGHVCFDVEYPRVLFFA, the amyloid nucleation score result is “inactive”. Take DVNVALIHSDL: the amyloid nucleation score entry is “inactive”. Consider IVISEALVFASGYKQVFNSV, for which the amyloid nucleation score entry was “inactive”. For TTMVIRNAMCNILNVVRKRR the value was 0.203 ± 0.33. Take ITIFDRMNH: the amyloid nucleation score entry was “inactive”.

For the substance CIVMG, the amyloid nucleation score entry is “inactive”. Take AMQAAPVCRRYAVVTTHFDH: the amyloid nucleation score entry is “inactive”. For RVREPSVAVRECWCYLGDAV, the amyloid nucleation score result was “inactive”. For KLLSSGFMMFWASYQTGYWR the value was “inactive”.

WFPSKYIATMFCLQVFLVKP: the amyloid nucleation score entry is “inactive”. With VHSCLLCHWSFYWLLFFMRS, the amyloid nucleation score entry was “inactive”. For SWGQVGYIEFFIGSSCHVS, the amyloid nucleation score is -0.378 ± 0.84. For LVVRLIDF, the amyloid nucleation score result is “inactive”. For the substance CDMDVFLSNMPSSVVNRSG, the amyloid nucleation score result is “inactive”. Substance SNRYKVCWCCPFLFRGVTRL had an amyloid nucleation score of 1.94 ± 0.093.

With SCRDDLLVMSKVTLITMT, the amyloid nucleation score result is “inactive”. PVDIDPLGSFVD: the amyloid nucleation score entry is “inactive”.

FRLKY: the amyloid nucleation score worked out at 0.12 ± 0.68. As to FFLAGLFCAISV, the amyloid nucleation score result was “inactive”. Take SVMMVMEEFFQWGLKVNMRT: the amyloid nucleation score is -0.078 ± 0.54.

Turning to ENSEW, the amyloid nucleation score entry is “inactive”. For NNRFTGILPVWTMHE the value was “inactive”. In the case of DVLWSGSYSSRLPGSIRDCE, the amyloid nucleation score result was “inactive”. Turning to EQLKTRNRKVWV, the amyloid nucleation score result is “inactive”. For the substance GHFLISIKKLL, the amyloid nucleation score entry was “inactive”. Regarding CPGDPVESRCFPVLVNLRRG, the amyloid nucleation score result was “inactive”. Regarding TMQEGRLSSWYSTVFFS, the amyloid nucleation score is -0.073 ± 0.43. For LRWSIEGFLVSMMKY the value was “inactive”; for NMLKAASKTVKG, “inactive”.

As for NGVLASWWC, the amyloid nucleation score entry is “inactive”. GGRYTVAAEVKVTHAYATG: the amyloid nucleation score entry is “inactive”.

LCVFKWLILREYISITHDSI: the amyloid nucleation score entry was “inactive”. In the case of IKIHYF, the amyloid nucleation score entry is “inactive”. The result for APAKTYIACC reads “inactive”; that for ILKSTELWKRESQFSQRVGA, 4.44 ± 0.057. For SARGCTNSSSNGLGRGHQTG, the amyloid nucleation score result is “inactive”.

For DLYIYCFWLDMVITVCKRQK, the amyloid nucleation score result is “inactive”.

For MNKFLSVAIQGIYVERNAHV, the amyloid nucleation score was determined as 1.34 ± 0.11. For CYLSSTGVVYAGYVYI the value was “inactive”. Consider WVLLRWAGY, for which the amyloid nucleation score is -0.611 ± 2.4. Take YVEKVYYCSVRLRYAFLDFD: the amyloid nucleation score result is “inactive”.

For AIKVGASIINFLWLAHVWCP, the amyloid nucleation score entry was “inactive”. In the case of HKFFAYDGGDRKRGIFGGWL, the amyloid nucleation score came out at 1.25 ± 0.1. With SYKSLNCALFLQ, the amyloid nucleation score came out at 0.574 ± 0.24.

For TCSKPGSSSMHSAVGKTMSA, the amyloid nucleation score entry was “inactive”.

Take LRVYYYNMILDDFCVFVLEG: the amyloid nucleation score amounted to 1.48 ± 0.13. With ISPGRAGQVVSLAGHSYQAL, the amyloid nucleation score entry is “inactive”.

Turning to WLRLIA, the amyloid nucleation score entry is “inactive”. Take LRMVRSYVLSNGCL: the amyloid nucleation score entry was “inactive”. For EPSGNM the value was “inactive”; for FQNHVSASKVVWHRFNRRKD, “inactive”. With IGTLSNLLTKGCKYYGVNIC, the amyloid nucleation score entry was “inactive”. The result for AYWESNSIPR reads “inactive”; that for LTWKFSATCIGVKT, “inactive”; that for VSHLAQHCNRLLLVSMLLGA, “inactive”.

With MFTGGMFRKVTIQIL, the amyloid nucleation score result was “inactive”. In the case of QEVAMRAISLSLPARWSVPC, the amyloid nucleation score result is “inactive”.

Consider VQSFGPNFD, for which the amyloid nucleation score result was “inactive”. In the case of VVYDPVICDGWALDGGVGAR, the amyloid nucleation score result is “inactive”. For VQGIRFRELFGRPAVRVVWH the value was “inactive”; for MPFGYICWIGVCFSHD, 1.96 ± 0.081; for SSTMLTNIWHHPNHGVVWDR, “inactive”. With YSGMGCFSAWSMW, the amyloid nucleation score entry is “inactive”.

Consider VMAYRHAGRRFSDPKSIKIS, for which the amyloid nucleation score entry was “inactive”. For ACYFWS the value was “inactive”. As to SLGFCKVGALLRWFCSQCQG, the amyloid nucleation score came to 0.561 ± 0.37. With HVVVKK, the amyloid nucleation score result was “inactive”. Regarding VMVSPPFTYWSRYVDYEYGE, the amyloid nucleation score result is “inactive”.

For the substance YGCWQRWSRQVGYFRGDKAC, the amyloid nucleation score result was “inactive”. Regarding FGRYPMYIASLITNSKVFGC, the amyloid nucleation score is -0.709 ± 0.41.

As to SDAVSIWGQKSNISSICNDS, the amyloid nucleation score result was “inactive”.

In the case of WYRLLYKVEYNFKGWSVFVR, the amyloid nucleation score result is “inactive”. In the case of AVLHNMGFSHILAQLV, the amyloid nucleation score entry was “inactive”. Take IWLVLESCNVPFL: the amyloid nucleation score entry was “inactive”. On to SNSFTAFVYTYPWDHLVGVL, for which the amyloid nucleation score was -0.195 ± 0.47. On to YSWDILSLLRGKETQACICY, for which the amyloid nucleation score entry is “inactive”. Consider HCVNRRKQYVRIRTYARLPC, for which the amyloid nucleation score entry was “inactive”. LWVRIKARTFNFS: the amyloid nucleation score came out at 0.228 ± 0.19. For SVLVDY, the amyloid nucleation score entry was “inactive”. In the case of KTFMSCFGMGKEEGLSHFPR, the amyloid nucleation score result is “inactive”. For VIFLGAYHNSLLNRAMHSGH, the amyloid nucleation score was determined as 1.45 ± 0.12. For DHWLLQYERRCKLGGFGY the value was “inactive”; for NSSCSCTCLLSGHRHTP, 0.829 ± 0.24; for TGIYAF, “inactive”. For MVFAMTYVLCDDMWSVIGHF the value was 0.141 ± 0.26. Regarding ESMLIS, the amyloid nucleation score result was “inactive”. Take RVLSCECKVGRKWICTELFV: the amyloid nucleation score entry was “inactive”. Turning to VSYNFGYAYECLGYVRFV, the amyloid nucleation score amounted to 0.572 ± 0.36. Turning to HLRWMTEKGPVRNVCVRGCH, the amyloid nucleation score entry is “inactive”. For YAFHKTDSCCVMCVRGPAPT the value was “inactive”; for VSKYIVSHIASSWSWGQWVL, “inactive”. Regarding SIIDKE, the amyloid nucleation score is -0.605 ± 0.98. In the case of IYVGHK, the amyloid nucleation score result was “inactive”.

For LALAVGQRDRVLFVKVPVLR, the amyloid nucleation score entry is “inactive”.

Turning to LEGQMTVRRDFTRFDW, the amyloid nucleation score result was “inactive”. For NHQIVRDDRCYKLLIQAVRM, the amyloid nucleation score entry was “inactive”. For the substance PKYALMRFRFYSGLR, the amyloid nucleation score result was “inactive”. As to CSGLCGFSQ, the amyloid nucleation score result is “inactive”. Regarding EHYFSTSIVGCGFFIWWCWG, the amyloid nucleation score entry was “inactive”.

Turning to TMSGWFNGCVYGVSAIHSSD, the amyloid nucleation score entry is “inactive”. The result for GPSLYINLMRVGCRRGHLFL reads 1.46 ± 0.12. Take WSYTAKGVW: the amyloid nucleation score result is “inactive”. Turning to NGPVGN, the amyloid nucleation score entry was “inactive”. For the substance FGADSDQHLRRLLGAEGWCR, the amyloid nucleation score entry was “inactive”. For the substance FKIMD, the amyloid nucleation score result is “inactive”. As for SMRLEFGLSMCVWVVDPSN, the amyloid nucleation score came out at 0.706 ± 0.15. Substance EPGDRQARKSFRLSFWAQEV had an amyloid nucleation score of 0.422 ± 0.21. CLFSLLYPCGWINYSNSNMS yielded an amyloid nucleation score of 0.437 ± 0.17. As for IYGNFS, the amyloid nucleation score result was “inactive”. As to AVCPSISTLSCGQ, the amyloid nucleation score is -0.055 ± 0.82. Turning to HLCRFYSSFGDSTSSRLSGN, the amyloid nucleation score entry is “inactive”. QWFAWARQWL: the amyloid nucleation score result was “inactive”. The result for VNNVQCLYDAVREDSRWYWG reads “inactive”.
